Measured values reported in patent US20210403913.

Tests used:
[1] = target: CXCL8 (IL-8) (Homo sapiens) (UniProt P10145); assay: SPR; conditions: L-RNA, CXCL8 immobilised
[2] = target: D-CXCL8 (mirror-image human CXCL8) (synthetic (human sequence)) (UniProt P10145); assay: competition; conditions: competition pull-down vs labelled 315-F8-001; 37 C
[3] = target: D-CXCL8 (mirror-image human CXCL8) (synthetic (human sequence)) (UniProt P10145); assay: pulldown; conditions: direct pull-down, 37 C

Sequence: GCUGACGGAAGUACGUGGAAAGCCGAAAGUGUGUCCCGGUCAGC [315-F8-001 (L)]
- Kd ([1]; 25 C, 20 mM Tris pH 7.4, 150 mM NaCl, 5 mM KCl, 1 mM MgCl2, 1 mM CaCl2): 0.22 nM
- Kd ([1]; 37 C): 0.68 nM

Sequence: CUGACGGAAGUACGUGGAAAGCCGAAAGUGUGUCCCGGUCAG [315-F8-002 (D)]
- Kd [2]: 1.1 nM

Sequence: CUGACGGAAGUACGUGGAAAGCCGAAAGUGUGUCCCGGUCAG [315-F8-002 (L)]
- Kd ([1]; 25 C): 0.22 nM
- Kd ([1]; 37 C): 0.75 nM

Sequence: GCUGACGGAAGUACGUGGAAAGCCGAAAGUGUGUCCCGGUCAGC [315-F8-001 (D)]
- Kd ([3]; 20 mM Tris pH 7.4, 150 mM NaCl, 5 mM KCl, 1 mM MgCl2, 1 mM CaCl2, yeast RNA): 0.8 nM

Sequence: GCUGACGGAAGUACGUGGAAAGCCAAUGAGUGUGUCCCGGUCAGC [315-H9-001 (D)]
- Kd [3]: 1.7 nM

Sequence: CUGACGGAAGUACGUGGAAAGCCGAAAGUGUGUCCCGGUCAG [315-F8-002-PEG (AON-S08)]
- Kd ([1]; 5'-aminohexyl linker with 40 kDa Y-shape PEG, 25 C): 0.2 nM
- Kd ([1]; 5'-aminohexyl linker with 40 kDa Y-shape PEG, 37 C): 0.8 nM
